Laboratory results as given in US20240360203A1.

Molecular target: SARS-CoV-2 BA.4/5+K444T Spike on pseudovirus (SARS-CoV-2), P0DTC2
Assay: cell-based or functional assay

B1: AB-1 (antibody, V domains shown)
VH: EVQLVESGAEVKKPGESLKISCKGSGYTFTRYWIGWVRQMPGKGLEWMGIIYPGDSDVRYSPSFQGHVTISADKSISTAYLQWNSLKASDTAMYYCARLPQYCSKGVCYRWFDPWGQGTLVTVSS
VL: EIVLTQSPSSVSASVGDRVTITCRASQGISSWLAWYQQKPGKAPKLLIYAASSLQSGVPSRFSGSGSGTDFTLTISSLQPEDFATYYCQQGHSFPYTFGQGTNLEIK
  IC50, pseudovirus neutralization: 9.4 ng/mL
